We go through 9 substances from PMC8129110.

The target in assay [1] is Ent1 ENTH domain (S. cerevisiae), wild type (UniProt Q12518). As to the kind of experiment: DLS. Conditions: complexes assembled in the presence of PIP2; parent: est. 100; read off a plot.
Assay [2] concerns the target Sla2 ANTH domain (S. cerevisiae), wild type. Nature of the assay: DLS. Conditions: complexes assembled in the presence of PIP2; parent: est. 100; read off a plot.

Chain of UniProt Q12518 (Q12518 whole entry, looked up, the tested form may be a part): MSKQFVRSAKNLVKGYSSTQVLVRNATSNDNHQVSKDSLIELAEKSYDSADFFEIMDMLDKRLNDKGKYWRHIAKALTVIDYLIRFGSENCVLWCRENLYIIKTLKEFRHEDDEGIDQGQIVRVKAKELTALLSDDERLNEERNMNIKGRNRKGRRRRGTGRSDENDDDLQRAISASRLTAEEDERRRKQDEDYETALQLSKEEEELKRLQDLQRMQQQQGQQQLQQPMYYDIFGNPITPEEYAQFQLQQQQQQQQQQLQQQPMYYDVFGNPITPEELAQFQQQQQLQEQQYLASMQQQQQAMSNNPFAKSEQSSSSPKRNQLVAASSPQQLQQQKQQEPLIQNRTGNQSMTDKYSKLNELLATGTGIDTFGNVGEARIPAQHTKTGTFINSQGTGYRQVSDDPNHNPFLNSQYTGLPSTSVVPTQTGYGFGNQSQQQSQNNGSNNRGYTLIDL

For “Sla2 ANTH domain (S. cerevisiae), wild type Q9A; K10A”, in assay [1], the response was determined as 100 % mass.

Take “Sla2 ANTH domain (S. cerevisiae), wild type R25A”: the response in assay [1] came out at 32 % mass.

As to “Sla2 ANTH domain (S. cerevisiae), wild type K10A; K13A; K14A”, the response in assay [1] worked out at 28 % mass.

“Ent1 ENTH domain (S. cerevisiae), wild type (from UniProt Q12518) E107A”: the response in assay [2] turned out to be 75 % mass.

As for “Sla2 ANTH domain (S. cerevisiae), wild type R3A”, the response in assay [1] is 21 % mass.

“Sla2 ANTH domain (S. cerevisiae), wild type R29A”: the response in assay [1] was 27 % mass.

With “Sla2 ANTH domain (S. cerevisiae), wild type R3A; I4A; D37R”, the response in assay [1] worked out at 100 % mass.

Consider “Ent1 ENTH domain (S. cerevisiae), wild type (from UniProt Q12518) E54A; D57A; D60A”, for which the response in assay [2] was found to be 100 % mass.

Turning to “Ent1 ENTH domain (S. cerevisiae), wild type (from UniProt Q12518) Y100R”, the response in assay [2] is 37 % mass.
